B1: MMP1 (parent)
chain: FHGTRQYKFDPKTKRILTLQKANS

Variants of: B1
Experiment: protein stability index of a GFP-peptide fusion (GPS, HEK-293T) (PSI 1-6); higher = more stable
Conditions: c terminus: a fixed tail appended
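Also: lentivirally expressed fusions sorted by FACS into six bins by GFP to DsRed ratio, PSI derived from sequencing read proportions per bin multiplied by bin number.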

Variant	protein stability index
FHGTRQYKFDPKTKRIKTLQKANS [L17K]	2.1
FHGTRQYKFDPKTKRIATLQKANS [L17A]	1.92
FHGTRQYKFDPKTKRIMTLQKANS [L17M]	1.53
FHGTRQYKFDPKTKRIHTLQKANS [L17H]	2.17
FHGTRQYKFDPKTKRIDTLQKANS [L17D]	1.91
FHGTRQYKFDPKTKRICTLQKANS [L17C]	2.02
FHGTRQYKFDPKTKRIETLQKANS [L17E]	1.59
FHGTRQYKFDPKTKRIFTLQKANS [L17F]	1.56
FHGTRQYKFDPKTKRIITLQKANS [L17I]	1.78
FHGTRQYKFDPKTKRIGTLQKANS [L17G]	2.38
FHGTRQYKFDPKHKRILTLQKANS [T13H]	2.21
FHGTRQYKFDPKRKRILTLQKANS [T13R]	1.85
FHGTRQYKFDPKPKRILTLQKANS [T13P]	1.8
FHGTRQYKFDPKSKRILTLQKANS [T13S]	1.99
FHGTRQYKFDPKIKRILTLQKANS [T13I]	1.8
FHGTRQYKFDPKVKRILTLQKANS [T13V]	1.6
FHGTRQYKFDPKGKRILTLQKANS [T13G]	1.62
FHGTRQYKFDPKAKRILTLQKANS [T13A]	2.3
FHGTRQYKFDPKQKRILTLQKANS [T13Q]	2.37
FHGTRQYKFDPKFKRILTLQKANS [T13F]	1.68
FHGTRQYKFDPKDKRILTLQKANS [T13D]	2.33
FHGTRQYKFDPKWKRILTLQKANS [T13W]	2.07
FHGTRQYKFDPKMKRILTLQKANS [T13M]	1.67
FHGTRQYKFDPKYKRILTLQKANS [T13Y]	1.65

Variant	protein stability index
FHGTRQYKFDPKNKRILTLQKANS [T13N]	1.96
FHGTRQYKFDPKEKRILTLQKANS [T13E]	1.69
FHGTRQYKFDPKLKRILTLQKANS [T13L]	2.09
FHGTRQYKFDPKKKRILTLQKANS [T13K]	2
FHGTRQYKFDPKCKRILTLQKANS [T13C]	2.66
FHGTRQYKFDPKTWRILTLQKANS [K14W]	1.95
FHGTRQYKFDPKTGRILTLQKANS [K14G]	1.54
FHGTRQYKFDPKTERILTLQKANS [K14E]	1.85
FHGTRQYKFDPKTTRILTLQKANS [K14T]	1.61
FHGTRQYKFDPKTIRILTLQKANS [K14I]	1.92
FHGTRQYKFDPKTQRILTLQKANS [K14Q]	1.82
FHGTRQYKFDPKTCRILTLQKANS [K14C]	2.18
FHGTRQYKFDPKTRRILTLQKANS [K14R]	1.85
FHGTRQYKFDPKTMRILTLQKANS [K14M]	2.16
FHGTRQYKFDPKTSRILTLQKANS [K14S]	1.69
FHGTRQYKFDPKTPRILTLQKANS [K14P]	2.1
FHGTRQYKFDPKTHRILTLQKANS [K14H]	1.54
FHGTRQYKFDPKTFRILTLQKANS [K14F]	1.98
FHGTRQYKFDPKTVRILTLQKANS [K14V]	2.53
FHGTRQYKFDPKTDRILTLQKANS [K14D]	2.19
FHGTRQYKFDPKTARILTLQKANS [K14A]	2.68
FHGTRQYKFDPKTNRILTLQKANS [K14N]	2.14
FHGTRQYKFDPKTYRILTLQKANS [K14Y]	1.36
FHGTRQYKFDPKTLRILTLQKANS [K14L]	1.99

Variant	protein stability index
FHGTRQYKFDPSTKRILTLQKANS [K12S]	1.57
FHGTRQYKFDPYTKRILTLQKANS [K12Y]	3.08
FHGTRQYKFDPVTKRILTLQKANS [K12V]	1.55
FHGTRQYKFDPQTKRILTLQKANS [K12Q]	2.04
FHGTRQYKFDPWTKRILTLQKANS [K12W]	3.25
FHGTRQYKFDPPTKRILTLQKANS [K12P]	2.26
FHGTRQYKFDPRTKRILTLQKANS [K12R]	2.44
FHGTRQYKFDPTTKRILTLQKANS [K12T]	1.73
FHGTRQYKFDPKTKRKLTLQKANS [I16K]	1.67
FHGTRQYKFDPKTKRNLTLQKANS [I16N]	1.84
FHGTRQYKFDPKTKRGLTLQKANS [I16G]	1.64
FHGTRQYKFDPKTKRTLTLQKANS [I16T]	1.91
FHGTRQYKFDPKTKRCLTLQKANS [I16C]	1.68
FHGTRQYKFDPKTKRLLTLQKANS [I16L]	2.21
FHGTRQYKFDPKTKRPLTLQKANS [I16P]	1.93
FHGTRQYKFDPKTKRSLTLQKANS [I16S]	1.7
FHGTRQYKFDPKTKRQLTLQKANS [I16Q]	1.94
FHGTRQYKFDPKTKRELTLQKANS [I16E]	1.93
FHGTRQYKFDPKTKRYLTLQKANS [I16Y]	1.35
FHGTRQYKFDPKTKRVLTLQKANS [I16V]	2.25
FHGTRQYKFDPKTKRDLTLQKANS [I16D]	2.5
FHGTRQYKFDPKTKRALTLQKANS [I16A]	2.8
FHGTRQYKFDPKTKRHLTLQKANS [I16H]	1.42
FHGTRQYKFDPKTKRWLTLQKANS [I16W]	1.95

Variant	protein stability index
FHGTRQYKFDPKTKRMLTLQKANS [I16M]	1.64
FHGTRQYKFDPKTKRRLTLQKANS [I16R]	1.36
FHGTRQYKFDPKTKRFLTLQKANS [I16F]	1.64
FHGTRQYKFDPKTKIILTLQKANS [R15I]	2.05
FHGTRQYKFDPKTKYILTLQKANS [R15Y]	1.57
FHGTRQYKFDPKTKCILTLQKANS [R15C]	1.28
FHGTRQYKFDPKTKWILTLQKANS [R15W]	1.69
FHGTRQYKFDPKTKPILTLQKANS [R15P]	2.29
FHGTRQYKFDPKTKDILTLQKANS [R15D]	1.86
FHGTRQYKFDPKTKEILTLQKANS [R15E]	1.83
FHGTRQYKFDPKTKKILTLQKANS [R15K]	1.66
FHGTRQYKFDPKTKTILTLQKANS [R15T]	1.83
FHGTRQYKFDPKTKMILTLQKANS [R15M]	1.47
FHGTRQYKFDPKTKQILTLQKANS [R15Q]	2.16
FHGTRQYKFDPKTKGILTLQKANS [R15G]	1.31
FHGTRQYKFDPKTKFILTLQKANS [R15F]	1.3
FHGTRQYKFDPKTKLILTLQKANS [R15L]	2.2
FHGTRQYKFDPKTKNILTLQKANS [R15N]	1.73
FHGTRQYKFDPKTKAILTLQKANS [R15A]	2.51
FHGTRQYKFDPKTKSILTLQKANS [R15S]	1.91
FHGTRQYKFDPKTKHILTLQKANS [R15H]	1.86
FHGTRQYKFDPKTKVILTLQKANS [R15V]	1.77
